In the DeepSol protein solubility set:

experiment: soluble on expression in E. coli; label from the status in PepcDB or PDB records

Soluble on expression in E. coli, soluble:
MGHHHHHHSHMMQSVDVVIIGGGMVGLALAAALKESDLRIAVVENQLPEEALNPLPDVRVSALSRSSEIVLRNLNAWAGIEARRAAPYIAMEVWEQDSFARIEFKANEMTQPNLGHIVENRVIQLALFEQVQQQANVTLHVPATCQSIAVGESEAWLTLSNGQALSAKLVVGADGANSWLRRQMDIPLTHWDYGHSALVANVRTSDPHNKVARQIFTAQGPLAFLPMSEPHMSSIVWSTEPSRAEALLNMNDVQFNKALTAEFDARLGRCEVVGERQAFPLKMRYARDFVAPRVALVGDAAHTIHPLAGQGVNLGLLDAACLAQELLSLWQQNRDIGDERNLRHYERWRKAEAAKMIAAMQGFRDLFEGDNPAKKLIRGIGMRLVGQLPGAKDEIMKRALGLKGDLPELAKQVWLERAY
MGHHHHHHSHMQQQETNLLANLTTNDARDNSKDFQNSKVGAAATSRDEGCNCPIIGEIVISCYWLFEIPPLISE
MGHHHHHHSHMRKNESYLNQPAPPIPIPTLSLMGGCREHFENHWKGRARWLMPVIPALWEAKAGRSPEVRSSKPAWPTWRNPIFTKNTKISQVLELFLNYQSLICALEKQKRQKGSLAIFCWSFQGGCVSKRPDVPSLKSQKPKRKRITGRKRLSKGSWSLLFSNLGRF
MGHHHHHHSHMRPLTEEETRVMFEKIAKYIGENLQLLVDRPDGTYCFRLHNDRVYYVSEKIMKLAANISGDKLVSLGTCFGKFTKTHKFRLHVTALDYLAPYAKYKVWIKPGAEQSFLYGNHVLKSGLGRITENTSQYQGVVVYSMADIPLGFGVAAKSTQDCRKVDPMAIVVFHQADIGEYVRHEETLT
MGHHHHHHSHMSAFASSDRAEKSGIALEAQQKIYEKYDKNLAGEILQWVQNVTGQSFDTQGDADNLVKVFQDGSLLCTLANSLKPGSVKKVNTSAMAFKKMENISFFLKFAEEYVQKSELFQTVDLYEGQDPNAVLICLASLARKSEKNFGRSGLGPKEAQGDRREWTDEQLKAGHNVIGLQMGSNKGATASGLNMGNTRHM
MGHHHHHHSHMSETSFNLISEKCDILSILRDHPENRIYRRKIEELSKRFTAIRKTKGDGNCFYRALGYSYLESLLGKSREIFKFKERVLQTPNDLLAAGFEEHKFRNFFNAFYSVVELVEKDGSVSSLLKVFNDQSASDHIVQFLRLLTSAFIRNRADFFRHFIDEEMDIKDFCTHEVEPMATECDHIQITALSQALSIALQVEYVDEMDTALNHHVFPEAATPSVYLLYKTSHYNILYAADKH
MGHHHHHHSHMSVAGGEIRGDTGGEDTAAPGRFSFSPEPTLEDIRRLHAEFAAERDWEQFHQPRNLLLALVGEVGELAELFQWKTDGEPGPQGWSPRERAALQEELSDVLIYLVALAARCRVDLPLAVLSKMDINRRRYPAHLARSSSRKYTELPHGAISEDQAVGPADIPCDSTGQTST
MGHHHHHHSHSLHYIHPYQPNEYLKALVAVGEICQDYDSDKMFPAFGFGARIPPEYTVSHDFAINFNEDNPECAGIQGVVEAYQSCLPKLQLYGPTNIAPIIQKVAKSASEETNTKEASQYFILLILTDGVITDMADTREAIVHASHLPMSVIIVGVGNADFSDMQMLDGDDGILRSPKGEPVLRDIVQFVPFRNFKHASPAALAKSVLAEVPNQVVDYYNGKGIKPKCSSEMY
MGHHHHHHSHSPGSASGGSREYKVVMLGAGGVGKSAMTMQFISHQFPDYHDPTIEDAYKTQVRIDNEPAYLDILDTAGQAEFTAMREQYMRGGEGFIICYSVTDRQSFQEAAKFKELIFQVRHTYEIPLVLVGNKIDLEQFRQVSTEEGLSLAQEYNCGFFETSAALRFCIDDAFHGLVREIRKKESMP
MGHHHHHHSSGLVPRGSATERQDRNLLYEHAREGYSALPLLDMESLCAYPEDAARALDLRKGELRSKDLPGIISTWQELRQLREQIRSLEEEKEAVTEAVRALVVNQDNSQVQQDPQYQSLRARGREIRKQLTLLYPKEAQLEEQFYLRALRLPNQTHPDVPVGDESQARVLHVVGDKPAFSFQPRGHLEIAEKLDIIRQKRLSHVSGHRSYYLRGAGALLQHGLVNFTLNKLIHRGFTPMTVPDLLRGVVFEGCGMTPNAKPSQIYNIDPSRFEDLNLAGTAEVGLAGYFMDHSVAFRDLPIRMVCSSTCYRAETDTGKEPWGLYRVHHFTKVEMFGVTGPGLEQSSELLEEFLSLQMEILTELGLHFRVLDMPTQELGLPAYRKFDIEAWMPGRGRFGEVTSASNCTDFQSRRLHIMFQTEAGELQFAHTVNATGCAVPRLLIALLESYQQKDGSVLVPPALQPYLGTDRITTPTHVPLQYIGPNQPQKPRLPGQPASS
MGILFTRIWRLFNHQEHKVIIVGLDNAGKTTILYQFSMNEVVHTSPTIGSNVEEIVINNTRFLMWDIGGQESLRSSWNTYYTNTEFVIVVVDSTDRERISVTREELYKMLAHEDLRKAGLLIFANKQDVKECMTVAEISQFLKLTSIKDHQWHIQACCALTGEGLCQGLEWMMSRLKIRLEHHHHHH

Soluble on expression in E. coli, not soluble:
MGHHHHHHSHMNRLPDDYDPYAVEEPSDEEPALSSSEDEVDVLLHGTPDQKRKLIRECLTGESESSSEDEFEKEMEAELNSTMKTMEDKLSSLGTGSSSGNGKVATAPTRYYDDIYFDSDSEDEDRAVQVTKKKKKKQHKIPTNDELLYDPEKDNRDQAWVDAQRRGYHGLGPQRSREQQPVPNSDAVLNCPACMTTLCLDCQRHESYKTQYRAMFVMNCSINKEEVLRYKASENRKKRRVHKKMRSNQEDAAEKAETDVEEIYHPVMCTECSTEVAVYDKDEVFHFFNVLASHS
MGHHHHHHSHMPTTSRPALDVKGGTSPAKEDANQEMSSVAYSNLAVKDRKAVAILHYPGVASNGTKASGAPTSSSGSPIGSPTTTPPTKPPSFNLHPAPHLLASMQLQKLNSQYQGMAAATPGQPGEAGPLQNWDFGAQAGGAESLSPSAGAQSPAIIDSDPVDEEVLMSLVVELGLDRANELPELWLGQNEFDFTADFPSSC
MGHHHHHHSHMQLVRDLLEVTSGLISDDIINMRNDLYQTPLHLAVITKQEDVVEDLLRAGADLSLLDRLGNSVLHLAAKEGHDKVLSILLKHKKAALLLDHPNGDGLNAIHLAMMSNSLPCLLLLVAAGADVNAQEQKSGRTALHLAVEHDNISLAGCLLLEGDAHVDSTTYDGTTPLHIAAGRGSTRLAALLKAAGADPLVENFEPLYDL
MGHHHHHHSHMRPRRPHQIADLFRPKDQIAYSDTSPFLILSEASLADLNSRLEKKVKATNFRPNIVISGCDVYAEDSWDELLIGDVELKRVMACSRCILTTVDPDTGVMSRKEPLETLKSYRQCDPSERKLYGKSPLFGQYFVLENPGTIKVGDPVYLLGQ
MGHHHHHHSHMSEPGKGDDCLELESSMAESRLRAPDLGVSRCLGKCQKNSPGARKHPFSGKSFYLDLPAGKNLQFLTGAIQQLGGVIEGFLSKEVSYIVSSRREVKAESSGKSHRGCPSPSPSEVRVETSAMVDPKGSHPRPSRKPVDSVPLSRGKELLQKAIRNQVSWGKMGQSRWSPA
MGHHHHHHSHMSLFSGTIQNLENALSRADIKQKVITNNIANIDTPNYKAKKVSFQNLLDQESSRLEAIKTDYRHVDFSDTDSNYSIVASGDTSYQQNGNNVDVDKEMTELAQNQINYQALVERMNGKFNSLKTVLTGGK
MGHHHHHHSHMTDQTYCDRLVQDTPFLTGHGRLSEQQVDRIILQLNRYYPQILTNKEAEKFRNPKASLRVRLCDLLSHLQRSGERDCQEFYRALYIHAQPLHSRLPSRHALRKFHITNHACLVLARGGHPSLPLMAWMSSMTTQVCCSPGLASPLASAPPQRPPSGPEGRVWQAQAVQMLVSVSHFLPLPPSLSHGSFHTAWGILYVHSCPSFSNLIPRGSLHVCVDSNLVPTAAWRS
MGHHHHHHSHMTSFEDADTEETVTCLQMTVYHPGQLQCGIFQSISFNREKLPSSEVVKFGRNSNICHYTFQDKQVSRVQFSLQLFKKFNSSVLSFEIKNMSKKTNLIVDSRELGYLNKMDLPYRCMVRFGEYQFLMEKEDGESLEFFETQFILSPRSLLQENNWPPHRPIPEYGTYSLCSSQSSSPTEMDENES
MGHHHHHHSHMVSTATHSLSRLHTMLTGLRNAPSEKLEQILRTCSRDPTQAIANRLKEMFEIYSQHFQPDEDFSNCAKEIASKHFRFAEMLYYKVLESVIEQEQKRLGDMDLSGILEQDAFHRSLLACCLEVVTFSYKPPGNFPFITEIFDVPLYHFYKVIEVFIRAEDGLCREVVKHLNQIEEQILDHLAWKPES
MGHHHHHHSHPQDNDFLSRKAQDCYFMKLHHCPGNHSWDSTISGSQRAAFCDHKTTPCSSAIINPLSTAGNSERLQPGIAQQWIQSKREDIVNQMTEACLNQSLDALLSRDLIMKEDYELVSTKPTRTSKVRQLLDTTDIQGEEFAKVIVQKLKDNKQMGLQPYPEILVVSRSPSLNLLQNKSM
MGHHHHHHSHSHTIRDLKYTIENPRHFVDSHHQKPVNAIIEHVRDGSVVRALLLPDYYLVTVMLSGIKCPTFRREADGSETPEPFAAEAKFFTESRLLQRDVQIILESCHNQNILGTILHPNGNITELLLKEGFARCVDWSIAVYTRGAEKLRAAERFAKERRLRIWRDYVAPTANLDQK
MGHHHHHHSHSQIQGVQTNDDLNNDSDDSSDNCVIVGFVKPLAERTPELVELSSDSEDLGSYEKMETVKTQEQEQSYSSGDSDVSRCSSPHSVLGKDEQINKGHCDSSTRIKSKKEEKRSTSLSSPRNLNSSVRGDRVYSPYNHRHRKRGRSRSSDSRSQSRSGHDQKNHRKHHGKKRMKSKRSRSRESSRPRGRRDKKRSRTRDSSWSRRSQTLSLSSESTSRSRSRSSDHGKRRSRSRNRDRYYLRNNYGSRYKWEY
MGHHHHHHSHVSRHYCPTCCYPMNACLCSHLQQIKPQTQLLVLQHPSEVEHKKNSVRVLSLVIPDTQVYVGESEADFAALRAQLSRCQRPIYLVYPSEQSASVESQSICVDCVLLLIDGTWRKAFKILQLNPWLAQFPAVHLAQGYASRYKIRKSSRSDSLSTLEASAYMLKALDDGLDVSPLLAAFDAMVAMRLQAMPAEVRLRYD
MGICVSFRREDSNSSPTVKIVTVNGDLREYNVPVIASQVLEAESAAAYSSSSSSRPSSYFICDSDSLYYDDFIPAIKSEEPLQADQIYFVLPISKRQSRLTASDMAALAVKASVAIQNSVKKESRRRKKVRISPVMMLTGSNDSVNGNGSETTVKKGRPFVSKTAPVKASSGINRSGSVRNLRRYTSKRAKLAVRSFRLKLSTIYEGSVV
MGIFSERLKEAMQQANITSAQLSKQTGIGRSSISQWLSNKYVAKHDKVTALAAVLNVSPDWLLGTTDVATAVSPEAVPIPVSVTPTPAVDPELITLWEQLDTKQRSKLIKKARKLLTKSAEQPNTKRKKNKKKKKGKKRK
MGILFMSKVGLRGDRRSEGDEVLDPLRQALDSSMQSHNLYQHPQHLAFHVSAPVASTVQQASGLLGPLPHLSSFALQPAHSLLPPLGSHGAGFQENGAKAES
